The source of these data is article PMC7851962.

This assay deals with GFP-EB1-A7 (UniProt Q15691). Put plainly: co-IP.
UniProt Q15691, sequence (Q15691 whole entry): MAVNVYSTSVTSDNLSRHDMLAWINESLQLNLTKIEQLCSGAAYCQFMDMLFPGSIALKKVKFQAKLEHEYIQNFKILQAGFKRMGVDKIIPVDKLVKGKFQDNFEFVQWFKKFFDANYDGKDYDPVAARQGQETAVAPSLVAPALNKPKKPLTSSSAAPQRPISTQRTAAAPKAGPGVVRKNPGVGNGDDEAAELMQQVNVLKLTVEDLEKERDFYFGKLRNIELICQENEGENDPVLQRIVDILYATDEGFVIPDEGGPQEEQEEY

B1: Arl4D^WT expressed in COS-7 cells (natural protein)
chain: MGNHLTEMAPTASSFLPHFQALHVVVIGLDSAGKTSLLYRLKFKEFVQSVPTKGFNTEKIRVPLGGSRGITFQVWDVGGQEKLRPLWRSYTRRTDGLVFVVDAAEAERLEEAKVELHRISRASDNQGVPVLVLANKQDQPGALSAAEVEKRLAVRELAAATLTHVQGCSAVDGLGLQQGLERLYEMILKRKKAARGGKKRR
B1 returned a percent of the amount co-immunoprecipitated with WT EB1 of 50%.
